Source: publication PMC8233153, “Peters plus syndrome mutations affect the function and stability of human β1,3-glucosyltransferase” (The Journal of Biological Chemistry, 2021)

substrate: O=c1ccn([C@@H]2O[C@H](CO[P@@](=O)(O)O[P@@](=O)(O)O[C@H]3O[C@H](CO)[C@@H](O)[C@H](O)[C@H]3O)[C@@H](O)[C@H]2O)c(=O)[nH]1; test: UDP-Glo glycosyltransferase assay (UDP release, luminescence), Michaelis-Menten fit; type: biochemical; details: donor varied, acceptor Fuc-O-TSR3 (human thrombospondin-1 TSR3), 50 mM Tris/HCl pH 7.5, 37 °C, 20 min, no metal added
Excerpt: UDP-Glo glycosyltransferase assay (UDP release, luminescence), Michaelis-Menten fit on B3GLCTΔREEL (human B3GLCT without REEL motif)

Molecule	Km [µM]	Vmax [µmol/min/mg]	kcat [s⁻¹]
B3GLCTΔREEL (human B3GLCT without REEL motif) (Homo sapiens) (protein, secreted from pSecTag2/HygroC, C-terminal Myc-His6 tag kept; native signal peptide replaced by vector signal; C-terminal ER-retention motif REEL (last 4 of 498 residues) removed; forward primer starts near SEDTKKEV; HEK293T medium, Ni-NTA) SEDTKKEVKQSQDLEKSGISRKNDIDLKGIVFVIQSQSNSFHAKRAEQLKKSILKQAADLTQELPSVLLLHQLAKQEGAWTILPLLPHFSVTYSRNSSWIFFCEEETRIQIPKLLETLRRYDPSKEWFLGKALHDEEATIIHHYAFSENPTVFKYPDFAAGWALSIPLVNKLTKRLKSESLKSDFTIDLKHEIALYIWDKGGGPPLTPVPEFCTNDVDFYCATTFHSFLPLCRKPVKKKDIFVAVKTCKKFHGDRIPIVKQTWESQASLIEYYSDYTENSIPTVDLGIPNTDRGHCGKTFAILERFLNRSQDKTAWLVIVDDDTLISISRLQHLLSCYDSGEPVFLGERYGYGLGTGGYSYITGGGGMVFSREAVRRLLASKCRCYSNDAPDDMVLGMCFSGLGIPVTHSPLFHQARPVDYPKDYLSHQVPISFHKHWNIDPVKVYFTWLAPSDEDKARQETQKGF	25.47	0.0432	0.0403
B3GLCTΔREEL (human B3GLCT without REEL motif) (Homo sapiens; V245M) (protein, secreted from pSecTag2/HygroC, C-terminal Myc-His6 tag kept; native signal peptide replaced by vector signal; C-terminal ER-retention motif REEL (last 4 of 498 residues) removed; forward primer starts near SEDTKKEV; HEK293T medium, Ni-NTA) SEDTKKEVKQSQDLEKSGISRKNDIDLKGIVFVIQSQSNSFHAKRAEQLKKSILKQAADLTQELPSVLLLHQLAKQEGAWTILPLLPHFSVTYSRNSSWIFFCEEETRIQIPKLLETLRRYDPSKEWFLGKALHDEEATIIHHYAFSENPTVFKYPDFAAGWALSIPLVNKLTKRLKSESLKSDFTIDLKHEIALYIWDKGGGPPLTPVPEFCTNDMDFYCATTFHSFLPLCRKPVKKKDIFVAVKTCKKFHGDRIPIVKQTWESQASLIEYYSDYTENSIPTVDLGIPNTDRGHCGKTFAILERFLNRSQDKTAWLVIVDDDTLISISRLQHLLSCYDSGEPVFLGERYGYGLGTGGYSYITGGGGMVFSREAVRRLLASKCRCYSNDAPDDMVLGMCFSGLGIPVTHSPLFHQARPVDYPKDYLSHQVPISFHKHWNIDPVKVYFTWLAPSDEDKARQETQKGF	18.74	0.0246	0.023
B3GLCTΔREEL (human B3GLCT without REEL motif) (Homo sapiens; R337H) (protein, secreted from pSecTag2/HygroC, C-terminal Myc-His6 tag kept; native signal peptide replaced by vector signal; C-terminal ER-retention motif REEL (last 4 of 498 residues) removed; forward primer starts near SEDTKKEV; HEK293T medium, Ni-NTA) SEDTKKEVKQSQDLEKSGISRKNDIDLKGIVFVIQSQSNSFHAKRAEQLKKSILKQAADLTQELPSVLLLHQLAKQEGAWTILPLLPHFSVTYSRNSSWIFFCEEETRIQIPKLLETLRRYDPSKEWFLGKALHDEEATIIHHYAFSENPTVFKYPDFAAGWALSIPLVNKLTKRLKSESLKSDFTIDLKHEIALYIWDKGGGPPLTPVPEFCTNDVDFYCATTFHSFLPLCRKPVKKKDIFVAVKTCKKFHGDRIPIVKQTWESQASLIEYYSDYTENSIPTVDLGIPNTDRGHCGKTFAILERFLNHSQDKTAWLVIVDDDTLISISRLQHLLSCYDSGEPVFLGERYGYGLGTGGYSYITGGGGMVFSREAVRRLLASKCRCYSNDAPDDMVLGMCFSGLGIPVTHSPLFHQARPVDYPKDYLSHQVPISFHKHWNIDPVKVYFTWLAPSDEDKARQETQKGF	21.89	0.0277	0.0258
B3GLCTΔREEL (human B3GLCT without REEL motif) (Homo sapiens; T179S) (protein, secreted from pSecTag2/HygroC, C-terminal Myc-His6 tag kept; native signal peptide replaced by vector signal; C-terminal ER-retention motif REEL (last 4 of 498 residues) removed; forward primer starts near SEDTKKEV; HEK293T medium, Ni-NTA) SEDTKKEVKQSQDLEKSGISRKNDIDLKGIVFVIQSQSNSFHAKRAEQLKKSILKQAADLTQELPSVLLLHQLAKQEGAWTILPLLPHFSVTYSRNSSWIFFCEEETRIQIPKLLETLRRYDPSKEWFLGKALHDEEATIIHHYAFSENPSVFKYPDFAAGWALSIPLVNKLTKRLKSESLKSDFTIDLKHEIALYIWDKGGGPPLTPVPEFCTNDVDFYCATTFHSFLPLCRKPVKKKDIFVAVKTCKKFHGDRIPIVKQTWESQASLIEYYSDYTENSIPTVDLGIPNTDRGHCGKTFAILERFLNRSQDKTAWLVIVDDDTLISISRLQHLLSCYDSGEPVFLGERYGYGLGTGGYSYITGGGGMVFSREAVRRLLASKCRCYSNDAPDDMVLGMCFSGLGIPVTHSPLFHQARPVDYPKDYLSHQVPISFHKHWNIDPVKVYFTWLAPSDEDKARQETQKGF	20.94	0.0324	0.0303
B3GLCTΔREEL (human B3GLCT without REEL motif) (Homo sapiens; Q457R) (protein, secreted from pSecTag2/HygroC, C-terminal Myc-His6 tag kept; native signal peptide replaced by vector signal; C-terminal ER-retention motif REEL (last 4 of 498 residues) removed; forward primer starts near SEDTKKEV; HEK293T medium, Ni-NTA) SEDTKKEVKQSQDLEKSGISRKNDIDLKGIVFVIQSQSNSFHAKRAEQLKKSILKQAADLTQELPSVLLLHQLAKQEGAWTILPLLPHFSVTYSRNSSWIFFCEEETRIQIPKLLETLRRYDPSKEWFLGKALHDEEATIIHHYAFSENPTVFKYPDFAAGWALSIPLVNKLTKRLKSESLKSDFTIDLKHEIALYIWDKGGGPPLTPVPEFCTNDVDFYCATTFHSFLPLCRKPVKKKDIFVAVKTCKKFHGDRIPIVKQTWESQASLIEYYSDYTENSIPTVDLGIPNTDRGHCGKTFAILERFLNRSQDKTAWLVIVDDDTLISISRLQHLLSCYDSGEPVFLGERYGYGLGTGGYSYITGGGGMVFSREAVRRLLASKCRCYSNDAPDDMVLGMCFSGLGIPVTHSPLFHQARPVDYPKDYLSHRVPISFHKHWNIDPVKVYFTWLAPSDEDKARQETQKGF	17.39	0.0236	0.022

target: O-fucosylated TSR3 from human thrombospondin-1 (Fuc-O-TSR3) (human); test: not given; details: not given

K (half) (μM) for the acceptor substrate Fuc-O-TSR3 in the in vitro glucosyltransferase assay (UDP-Glo; allosteric sigmoidal fit) [µM]	Molecule
8.04	human B3GLCTΔREEL T179S (PTRPLS-like mutant) (from UniProt Q6Y288 1-498) (enzyme)
6.65	human B3GLCTΔREEL R337H (PTRPLS-like mutant) (from UniProt Q6Y288 1-498) (enzyme)
8.9	human B3GLCT with the REEL motif removed (B3GLCTΔREEL), wild type (from UniProt Q6Y288 1-498) (enzyme)
6.64	human B3GLCTΔREEL V245M (PTRPLS-like mutant) (from UniProt Q6Y288 1-498) (enzyme)
5.73	human B3GLCTΔREEL Q457R (PTRPLS-like mutant) (from UniProt Q6Y288 1-498) (enzyme)
